Test results: paper PMC6372068 (Nature, 2018)

Biological target: T1, glutamyl-tRNA synthetase GluRS, C-terminally fused to GFP (S. cerevisiae, UniProt P46655 1-708)
T1 sequence: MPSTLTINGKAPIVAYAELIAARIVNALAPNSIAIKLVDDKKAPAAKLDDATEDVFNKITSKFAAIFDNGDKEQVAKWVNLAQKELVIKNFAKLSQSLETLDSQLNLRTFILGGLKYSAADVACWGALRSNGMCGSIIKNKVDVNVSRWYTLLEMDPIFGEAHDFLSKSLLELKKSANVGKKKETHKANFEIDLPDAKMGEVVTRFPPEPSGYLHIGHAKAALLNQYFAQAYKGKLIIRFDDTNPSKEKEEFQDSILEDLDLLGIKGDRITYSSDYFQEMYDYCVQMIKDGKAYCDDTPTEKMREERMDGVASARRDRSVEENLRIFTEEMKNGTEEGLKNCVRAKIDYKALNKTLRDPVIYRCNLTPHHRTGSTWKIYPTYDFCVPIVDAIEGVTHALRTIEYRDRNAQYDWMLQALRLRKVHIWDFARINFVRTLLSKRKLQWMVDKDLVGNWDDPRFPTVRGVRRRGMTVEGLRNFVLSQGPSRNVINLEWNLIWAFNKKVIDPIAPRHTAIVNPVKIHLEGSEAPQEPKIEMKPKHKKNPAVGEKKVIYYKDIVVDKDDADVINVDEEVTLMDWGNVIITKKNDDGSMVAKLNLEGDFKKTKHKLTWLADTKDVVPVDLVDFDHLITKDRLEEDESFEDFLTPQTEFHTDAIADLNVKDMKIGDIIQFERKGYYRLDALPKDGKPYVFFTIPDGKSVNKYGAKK
Experiment: selective ribosome profiling

B1: nascent MetRS (ribosome-nascent chain complexes) (natural protein)
chain: MSFLISFDKSKKHPAHLQLANNLKIALALEYASKNLKPEVDNDNAAMELRNTKEPFLLFDANAILRYVMDDFEGQTSDKYQFALASLQNLLYHKELPQQHVEVLTNKAIENYLVELKEPLTTTDLILFANVYALNSSLVHSKFPELPSKVHNAVALAKKHVPRDSSSFKNIGAVKIQADLTVKPKDSEILPKPNERNILITSALPYVNNVPHLGNIIGSVLSADIFARYCKGRNYNALFICGTDEYGTATETKALEEGVTPRQLCDKYHKIHSDVYKWFQIGFDYFGRTTTDKQTEIAQHIFTKLNSNGYLEEQSMKQLYCPVHNSYLADRYVEGECPKCHYDDARGDQCDKCGALLDPFELINPRCKLDDASPEPKYSDHIFLSLDKLESQISEWVEKASEEGNWSKNSKTITQSWLKDGLKPRCITRDLVWGTPVPLEKYKDKVLYVWFDATIGYVSITSNYTKEWKQWWNNPEHVSLYQFMGKDNVPFHTVVFPGSQLGTEENWTMLHHLNTTEYLQYENGKFSKSRGVGVFGNNAQDSGISPSVWRYYLASVRPESSDSHFSWDDFVARNNSELLANLGNFVNRLIKFVNAKYNGVVPKFDPKKVSNYDGLVKDINEILSNYVKEMELGHERRGLEIAMSLSARGNQFLQENKLDNTLFSQSPEKSDAVVAVGLNIIYAVSSIITPYMPEIGEKINKMLNAPALKIDDRFHLAILEGHNINKAEYLFQRIDEKKIDEWRAKYGGQQV
- fold enrichment in footprints: ≥ 30 fold
